Experimental data: publication PMC10378328, “Tissue Inhibitor of Metalloproteinases-1 Interacts with CD74 to Promote AKT Signaling, Monocyte Recruitment Responses, and Vascular Smooth Muscle Cell Proliferation” (Cells, 2023)

Target: T1, N-terminal FLAG-tagged human CD74 (human, UniProt P04233 1-296)
T1 sequence (looked up): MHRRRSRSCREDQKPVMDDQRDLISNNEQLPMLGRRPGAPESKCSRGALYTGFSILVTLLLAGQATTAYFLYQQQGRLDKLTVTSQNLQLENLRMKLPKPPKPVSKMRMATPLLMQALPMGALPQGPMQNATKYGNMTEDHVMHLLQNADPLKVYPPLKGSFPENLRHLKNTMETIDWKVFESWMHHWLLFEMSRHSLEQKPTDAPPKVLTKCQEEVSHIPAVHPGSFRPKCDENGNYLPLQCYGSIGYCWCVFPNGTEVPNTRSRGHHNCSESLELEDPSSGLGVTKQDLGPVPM
Assay: cell-based or functional assay

B1: recombinant human TIMP-1 (tissue inhibitor of metalloproteinases-1) (natural protein)
chain: not shown
arrest of MonoMac6 cells on a monolayer of human aortic endothelial cells under flow, TIMP-1 at 200 and 400 ng/mL, optimal concentration 200 ng/mL: 2 fold
